Interaction score data for five molecules are collected here from paper PMC10397247.

What all share (test): two-hybrid library CCNG1;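 note: natural log of median RNA to DNA barcode read ratio; higher means stronger binding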
One test has as its target T1, 4H3414-bA.
T1 chain: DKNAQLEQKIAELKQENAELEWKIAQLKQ

In a further test the target is T2, 4H619-bA.
T2 chain: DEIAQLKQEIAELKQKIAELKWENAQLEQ

For another test, the target named is T3, 4H3172-bA.
T3 chain: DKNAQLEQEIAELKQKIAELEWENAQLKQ

A further test addresses T4, 4H3129-bA.
T4 chain: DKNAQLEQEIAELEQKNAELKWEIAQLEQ

Another test has as its target T5, 4H3638-bA.
T5 chain: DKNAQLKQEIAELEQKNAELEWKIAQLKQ

Another test concerns the target T6, 4H906-bA.
T6 chain: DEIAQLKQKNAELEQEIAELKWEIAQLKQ

The next test concerns the target T7, 4H3817-bA.
T7 chain: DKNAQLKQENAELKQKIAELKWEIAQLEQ

A further test has as its target T8, 4H1804-bA.
T8 chain: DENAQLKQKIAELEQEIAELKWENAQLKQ

A further test has as its target T9, 4H1985-bA.
T9 chain: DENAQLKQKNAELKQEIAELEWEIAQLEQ

The next test concerns the target T10, 4H584-bA.
T10 chain: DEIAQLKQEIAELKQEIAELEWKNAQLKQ

For the next test, the target named is T11, 4H3631-bA.
T11 chain: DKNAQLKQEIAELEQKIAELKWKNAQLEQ

For the next test, the target named is T12, 4H570-bA.
T12 chain: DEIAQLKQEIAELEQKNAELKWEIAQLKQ

A further test has as its target T13, 4H850-bA.
T13 chain: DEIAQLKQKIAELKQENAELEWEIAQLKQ

In the next test the target is T14, 4H3974-bA.
T14 chain: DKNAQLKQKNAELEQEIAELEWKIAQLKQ

Another test concerns the target T15, P4mSN.
T15 chain: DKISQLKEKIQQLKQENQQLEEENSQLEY

A further test deals with T16, 4H906-bN.
T16 chain: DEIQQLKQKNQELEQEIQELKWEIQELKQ

For the next test, the target named is T17, P8mSN.
T17 chain: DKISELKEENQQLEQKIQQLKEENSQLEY

The next test addresses T18, P9mSN.
T18 chain: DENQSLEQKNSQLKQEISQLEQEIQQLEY

A further test has as its target T19, P7mSN.
T19 chain: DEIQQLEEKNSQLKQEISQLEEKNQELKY

The next test concerns the target T20, P6mSN.
T20 chain: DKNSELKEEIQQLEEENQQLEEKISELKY

The next test addresses T21, P5mSN.
T21 chain: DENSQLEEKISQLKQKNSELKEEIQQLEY

In a further test the target is T22, 4H3631-bH.
T22 chain: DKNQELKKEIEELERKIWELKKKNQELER

The target of a further test is T23, 4H3638-bH.
T23 chain: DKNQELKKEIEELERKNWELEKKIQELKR

A further test deals with T24, 4H850-bH.
T24 chain: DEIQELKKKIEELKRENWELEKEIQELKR

A further test addresses T25, 4H3414-bH.
T25 chain: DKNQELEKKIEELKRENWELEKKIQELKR

For another test, the target named is T26, 4H570-bH.
T26 chain: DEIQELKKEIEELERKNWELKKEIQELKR

For another test, the target named is T27, 4H584-bH.
T27 chain: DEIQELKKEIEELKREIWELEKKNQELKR

Another test deals with T28, 4H619-bH.
T28 chain: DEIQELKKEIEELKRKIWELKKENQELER

Another test concerns the target T29, 4H3172-bH.
T29 chain: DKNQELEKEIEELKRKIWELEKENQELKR

A further test has as its target T30, 4H3129-bH.
T30 chain: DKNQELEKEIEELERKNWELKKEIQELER

The target of another test is T31, 4H3817-bH.
T31 chain: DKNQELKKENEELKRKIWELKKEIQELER

The target of another test is T32, 4H3974-bH.
T32 chain: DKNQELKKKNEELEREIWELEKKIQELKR

The target in another test is T33, 4H1985-bH.
T33 chain: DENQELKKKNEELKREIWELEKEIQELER

The next test concerns the target T34, 4H1804-bH.
T34 chain: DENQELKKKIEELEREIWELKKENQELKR

A further test has as its target T35, 4H906-bH.
T35 chain: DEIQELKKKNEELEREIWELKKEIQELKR

The next test deals with T36, 4H3462-bH.
T36 chain: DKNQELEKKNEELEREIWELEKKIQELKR

The next test addresses T37, 4H626-bH.
T37 chain: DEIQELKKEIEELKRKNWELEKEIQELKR

Another test addresses T38, 4H3926-bH.
T38 chain: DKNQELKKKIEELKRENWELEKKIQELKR

The target in another test is T39, 4H3175-bH.
T39 chain: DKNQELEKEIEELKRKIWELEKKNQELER

A further test has as its target T40, 4H3381-bH.
T40 chain: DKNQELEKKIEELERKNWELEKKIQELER

A further test addresses T41, 4H3858-bH.
T41 chain: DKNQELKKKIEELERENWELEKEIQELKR

In a further test the target is T42, 4H3497-bH.
T42 chain: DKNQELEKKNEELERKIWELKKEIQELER

The target of another test is T43, 4H3162-bH.
T43 chain: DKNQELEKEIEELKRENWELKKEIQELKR

A further test addresses T44, 4H1710-bH.
T44 chain: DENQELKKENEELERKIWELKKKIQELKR

In a further test the target is T45, 4H1899-bH.
T45 chain: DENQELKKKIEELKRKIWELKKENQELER

The target in another test is T46, 4H3628-bH.
T46 chain: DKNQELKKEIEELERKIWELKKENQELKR

The target of another test is T47, 4H3277-bH.
T47 chain: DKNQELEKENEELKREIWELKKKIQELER

For a further test, the target named is T48, 4H591-bH.
T48 chain: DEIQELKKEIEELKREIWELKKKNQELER

Another test concerns the target T49, 4H3613-bH.
T49 chain: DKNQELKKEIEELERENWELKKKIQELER

The next test deals with T50, 4H3298-bH.
T50 chain: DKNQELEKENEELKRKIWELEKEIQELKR

B1: 4H1804-bA (peptide)
chain: DENAQLKQKIAELEQEIAELKWENAQLKQ
For B1, the interaction score was -0.0712 with 4H3414-bA; -1.65 with 4H619-bA; -0.016 with 4H3172-bA; 0.386 with 4H3129-bA; -0.376 with 4H3638-bA; -0.55 with 4H906-bA. The interaction score with 4H3817-bA was -0.0173; with 4H1804-bA it was 0.9; with 4H1985-bA, -0.729; with 4H584-bA, -0.489; with 4H3631-bA, 0.394; with 4H570-bA it was -0.765. Moreover, the interaction score was -0.531 in the test with 4H850-bA and -0.32 with 4H3974-bA.

B2: 4H906-bN (peptide)
chain: DEIQQLKQKNQELEQEIQELKWEIQELKQ
Take B2: the interaction score with P4mSN is -1.42; in the test with 4H906-bN, -0.198.

B3: P4mSN (peptide)
chain: DKISQLKEKIQQLKQENQQLEEENSQLEY
As to B3, the interaction score with P8mSN was -1.53; with P9mSN, -1.07; with P7mSN it was -1.04; with P6mSN, -0.838; with P4mSN it was -1.76; in the test with P5mSN, -1.42.

B4: 4H1804-bH (peptide)
chain: DENQELKKKIEELEREIWELKKENQELKR
On to B4, for which the interaction score in the test with 4H3631-bH was -0.276; with 4H3638-bH it was -0.512; in the test with 4H850-bH it was -0.238; in the test with 4H3414-bH, -0.0322; with 4H570-bH, -0.192; with 4H584-bH it was 0.198. Also, the interaction score with 4H619-bH was -0.693; with 4H3172-bH, -0.154; with 4H3129-bH, -0.437; in the test with 4H3817-bH, -0.0504; in the test with 4H3974-bH, -0.359; in the test with 4H1985-bH it was 0.0377. Further, the interaction score with 4H1804-bH was 0.525; with 4H906-bH, -0.842.

B5: 4H1710-bH (peptide)
chain: DENQELKKENEELERKIWELKKKIQELKR
Take B5: the interaction score with 4H3462-bH is 0.869; with 4H626-bH it was 0.853; in the test with 4H3631-bH, 0.643; with 4H3638-bH, -0.567; in the test with 4H850-bH it was 0.221; with 4H3414-bH, -0.234. Further, the interaction score with 4H570-bH was -0.481; with 4H584-bH, 0.848; with 4H3926-bH, 0.806; in the test with 4H3175-bH, 0.0594; in the test with 4H619-bH it was 0.404; with 4H3172-bH, 0.358. In addition, the interaction score with 4H3129-bH is 0.0138; with 4H3381-bH, -1.3; with 4H3858-bH, -0.238; with 4H3817-bH it was 0.823; with 4H3497-bH, 0.794; in the test with 4H3162-bH, -0.655. Moreover, the interaction score with 4H3974-bH is 0.887; with 4H1710-bH, 0.661; in the test with 4H1985-bH it was 0.219; in the test with 4H1899-bH it was 0.26; in the test with 4H3628-bH it was 1.35; in the test with 4H1804-bH it was -0.929. In addition, the interaction score is 0.846 with 4H3277-bH; -1.94 with 4H591-bH; -0.955 in the test with 4H3613-bH; -0.745 with 4H906-bH; -0.00934 in the test with 4H3298-bH.
